Assays:
[1] = molecular target: MART1 comPACT (UniProt P61769); assay: replicate of PE/APC comPACT tetramer dual staining, FACS
[2] = molecular target: MART1 comPACT (UniProt P61769); assay: dual staining with tetramer, trimer+DNA, dextramer and dextramer+DNA, FACS
[3] = molecular target: MART1 comPACT (UniProt P61769); assay: PE/APC comPACT tetramer dual staining, FACS

tetramer staining (% of T cells) [1]: > 99%
% of gene edited cells stained [2]: > 98%
tetramer staining (% of T cells) [3]: > 99%
Substance: TCR against a MART1 antigen (F5)

— patent publication US20200256849A1
